Test [1] addresses T1, human B7H3 (B73-H52E2, Acro Biosystem) (human, UniProt Q5ZPR3-2 29-245).
T1 construct: also called CD276; antigen B
T1 sequence (looked up): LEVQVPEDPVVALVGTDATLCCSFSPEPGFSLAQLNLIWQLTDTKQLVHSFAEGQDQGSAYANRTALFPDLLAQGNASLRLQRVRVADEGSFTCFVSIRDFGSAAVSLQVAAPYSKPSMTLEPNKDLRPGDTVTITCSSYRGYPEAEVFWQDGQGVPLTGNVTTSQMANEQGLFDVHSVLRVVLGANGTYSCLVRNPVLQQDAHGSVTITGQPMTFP
Kind of test: BLI (Octet Red96e), antibody captured on AHC sensor, human B7H3 100 nM in solution. (In general: Biolayer interferometry detects binding as a change in optical thickness at a sensor tip.)

Test [2] addresses T2, human EGFR (EGR-H5222, Acro Biosystem) (human, UniProt P00533 25-645).
T2 construct: Bought reagent; also called antigen A
Kind of test: BLI (Octet Red96e), antibody captured on AHC sensor, human EGFR 100 nM in solution.

Test [3] has as its target EGFR Del19 (amplified) on H1650 cells (UniProt P00533 25-1210). Description: cell-based or functional assay.
In test [4] the target is EGFR L858R/T790M on H1975 cells (UniProt P00533 25-1210, limits assumed). Description: cell-based or functional assay.
In test [5] the target is EGFR, wild type, on tumour cells (H508, TE-1, Colo-680N, H292, H322, H358; amplified in SK-MES-1 and H1703) (UniProt P00533 25-1210, limits assumed). Description: cell-based or functional assay.
In test [6] the target is EGFR R521K/Y1069C on CCK-81 cells (UniProt P00533 25-1210, limits assumed). Kind of test: cell-based or functional assay.
Test [7] has as its target EGFR R521K on HT-55 and LS180 cells (UniProt P00533 25-1210, limits assumed). Kind of test: cell-based or functional assay.

B1: Hz5C2.9/Zalu bsAb bispecific antibody molecule (bispecific antibody, human IgG1, kappa)
heavy 1: not shown
light 1: not shown
heavy 2: not shown
light 2: EIVLTQSPGTLSLSPGERATLSCRSSQSLVHSQGITYLDWYQQKPGQAPRLLIYKVSNRFSGIPDRFSGSGSGTDFTLTISRLEPEDFAVYYCSQGTHVPPWTFGGGTKVEIKRTVAAPSVFIFPPSDEQLKSGTASVVCLLNNFYPREAKVQWKVDNALQSGNSQESVTEQDSKDSTYSLSSTLTLSKADYEKHKVYACEVTHQGLSSPVTKSFNRGEC
notes: IgG1-like, four polypeptide chains, Innobody heterodimer Fc mutations; low fucose (GlymaxX)
For orientation: Kd means the free concentration of one partner at which half of the binding sites on the other are occupied at equilibrium, for simple one-to-one binding. Low values mean higher affinity, high ones lower affinity. A word on the koff: it is a measure of how fast the partners let go of each other. As usually defined, the kon is the rate constant with which the complex forms. Low values mean slower complex formation, high ones faster complex formation. In test [1], B1 yielded a Kd of 8.25 nM, a koff of 0.00352 s⁻¹ and a kon of 427000 M⁻¹ s⁻¹. In test [2], this molecule came in with a Kd of 4.69 nM, a dissociation rate constant (koff) of 0.00124 s⁻¹ and a kon of 264000 M⁻¹ s⁻¹.

B2: Hz20G5.26/Zalu bsAb bispecific antibody molecule (bispecific antibody, human IgG1, kappa)
heavy 1: not shown
light 1: not shown
heavy 2: not shown
light 2: DIQLTQSPSFLSASVGDRVTITCSASSSVSYIHWYQQKPGKAPKRWIYDTSRLASGVPSRFSGSGSGTEFTLTISSLQPEDFATYYCQQWSSAPLTFGGGTKVEIKRTVAAPSVFIFPPSDEQLKSGTASVVCLLNNFYPREAKVQWKVDNALQSGNSQESVTEQDSKDSTYSLSSTLTLSKADYEKHKVYACEVTHQGLSSPVTKSFNRGEC
notes: also called anti-B7-H3/EGFR bispecific antibody
Turning to B2, the “IC50(nM), proliferation inhibition, H1650 cells” value in test [3] is 4.86 nM. Besides, in test [4], the “IC50(nM), proliferation inhibition, H1975 cells” value stood at 0.99 nM. In test [5], the “IC50(nM), proliferation inhibition, Colo-680N cells” value amounted to 12.3 nM; the “IC50(nM), proliferation inhibition, H292 cells” value amounted to 57.8 nM; the “IC50(nM), proliferation inhibition, H508 cells” value is 1.08 nM; the “IC50(nM), proliferation inhibition, SK-MES-1 cells (EGFR amplification)” value worked out at 0.4 nM. Besides, the “IC50(nM), proliferation inhibition, TE-1 cells” value in test [5] came to 16 nM. For the same molecule, in test [6], the “IC50(nM), proliferation inhibition, CCK-81 cells” value came to 0.24 nM. Further, in test [7], the “IC50(nM), proliferation inhibition, HT-55 cells” value came to 0.14 nM and the “IC50(nM), proliferation inhibition, LS180 cells” value came out at 1.33 nM. The molecule also registered a Kd in test [1] of 2.48 nM. The molecule also returned a Kd in test [2] of 4.59 nM.

B3: Hz19A2.25/Zalu bsAb bispecific antibody molecule (bispecific antibody, human IgG1, kappa)
heavy 1: not shown
light 1: not shown
heavy 2: not shown
light 2: EIVLTQSPATLSLSPGERATLSCSVSSSVQSNYLYWYQQKPGQAPRLLIYGTSNLASGIPARFSGSGSGTDFTLTISSLEPEDFAVYYCYQWSSYPFTFGQGTKLEIKRTVAAPSVFIFPPSDEQLKSGTASVVCLLNNFYPREAKVQWKVDNALQSGNSQESVTEQDSKDSTYSLSSTLTLSKADYEKHKVYACEVTHQGLSSPVTKSFNRGEC
notes: as for B1
For the molecule B3, in test [1], the affinity, expressed as Kd, was 6.73 nM; the koff came to 0.00219 s⁻¹; the on-rate (kon) stood at 326000 M⁻¹ s⁻¹. In test [2], this molecule had a dissociation constant (Kd) of 4.19 nM, a koff of 0.00121 s⁻¹ and an association rate constant (kon) of 289000 M⁻¹ s⁻¹.

Values taken from patent US20250381269A1 (FORTVITA BIOLOGICS SINGAPORE PTE, published 2025).
